Assay results published in patent US20230227548A1 (published 2023).

T1: cyno GPRC5D (cyno, UniProt Q9NZD1 1-343 (human entry))
T1 chain: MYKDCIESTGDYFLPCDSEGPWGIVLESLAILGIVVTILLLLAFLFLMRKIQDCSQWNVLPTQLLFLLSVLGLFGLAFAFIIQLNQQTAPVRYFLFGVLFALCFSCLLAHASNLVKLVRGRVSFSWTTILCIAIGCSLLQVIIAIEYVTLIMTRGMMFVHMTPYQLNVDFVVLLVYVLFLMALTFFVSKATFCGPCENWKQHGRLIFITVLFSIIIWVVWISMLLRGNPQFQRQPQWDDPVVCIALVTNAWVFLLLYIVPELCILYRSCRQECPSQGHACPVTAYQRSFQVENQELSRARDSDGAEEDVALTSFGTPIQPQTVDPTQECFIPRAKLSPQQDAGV


Legend:
human GPRC5D [1] = molecular target: T2, human GPRC5D (human, UniProt Q9NZD1 1-345); assay: cell-based or functional assay
T2 sequence (Q9NZD1 whole entry): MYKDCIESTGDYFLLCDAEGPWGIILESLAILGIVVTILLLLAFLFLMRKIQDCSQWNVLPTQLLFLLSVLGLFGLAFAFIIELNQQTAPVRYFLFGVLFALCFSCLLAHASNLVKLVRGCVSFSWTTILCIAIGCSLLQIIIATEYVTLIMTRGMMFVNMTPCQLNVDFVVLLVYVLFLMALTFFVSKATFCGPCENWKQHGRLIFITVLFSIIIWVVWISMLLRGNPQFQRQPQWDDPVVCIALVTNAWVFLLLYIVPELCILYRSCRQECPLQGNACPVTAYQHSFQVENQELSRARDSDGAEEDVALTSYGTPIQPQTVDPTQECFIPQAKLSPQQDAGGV

cyno GPRC5D = molecular target: T1, cyno GPRC5D; assay: cell-based or functional assay
human GPRC5D [2] = molecular target: T2, human GPRC5D; assay: FACS, human GPRC5D cells

binding result (human GPRC5D [2])	Binder	other results
binds	GC5B493 (antibody, V domains shown, GC5B164 PTM variant, Hc GC5H256) VH: EVQLVQSGAEVKKPGESLKISCKGSGYSFTSYFIGWVRQMPGKGLEWMGIIYPGYSDTRYSPSFQGQVTISADKSISTAYLQWSSLKASDTAMYYCARVYSFGGRHKALFDYWGQGTLVTVSS VL: EIVLTQSPATLSLSPGERATLSCRASQSVSSYLAWYQQKPGQAPRLLIYDASNRATGIPARFSGSGSGTDFTLTISSLEPEDFAVYYCQQRSNWPLTFGQGTKVEIK	–
binds	GC5B494 (antibody, V domains shown, GC5B164 PTM variant, Hc GC5H255) VH: EVQLVQSGAEVKKPGESLKISCKGSGYSFTSYGIGWVRQMPGKGLEWMGIIYPGYSDTRYSPSFQGQVTISADKSISTAYLQWSSLKASDTAMYYCARVYSFGGRHKALFDYWGQGTLVTVSS VL: EIVLTQSPATLSLSPGERATLSCRASQSVSSYLAWYQQKPGQAPRLLIYDASNRATGIPARFSGSGSGTDFTLTISSLEPEDFAVYYCQQRSNWPLTFGQGTKVEIK	–
binds	GC5B501 (antibody, V domains shown, GC5B164 PTM variant, Hc GC5H248) VH: EVQLVQSGAEVKKPGESLKISCKGSGYSFTSYWIGWVRQMPGKGLEWMGIIYPGASDTRYSPSFQGQVTISADKSISTAYLQWSSLKASDTAMYYCARVYSFGGRHKALFDYWGQGTLVTVSS VL: EIVLTQSPATLSLSPGERATLSCRASQSVSSYLAWYQQKPGQAPRLLIYDASNRATGIPARFSGSGSGTDFTLTISSLEPEDFAVYYCQQRSNWPLTFGQGTKVEIK	–
binds	GC5B505 (antibody, V domains shown, GC5B164 PTM variant, Hc GC5H244) VH: EVQLVQSGAEVKKPGESLKISCKGSGYSFTSYWIGWVRQMPGKGLEWMGIIYPGYSDTRYSPSFQGQVTISADKSISTAYLQWSSLKASDTAMYYCARVYSFGGRHKALFDYWGQGTLVTVSS VL: EIVLTQSPATLSLSPGERATLSCRASQSVSSYLAWYQQKPGQAPRLLIYDASNRATGIPARFSGSGSGTDFTLTISSLEPEDFAVYYCQQRSNWPLTFGQGTKVEIK	–
binds	GC5B495 (antibody, V domains shown, GC5B164 PTM variant, Hc GC5H254) VH: EVQLVQSGAEVKKPGESLKISCKGSGYSFTSYAIGWVRQMPGKGLEWMGIIYPGYSDTRYSPSFQGQVTISADKSISTAYLQWSSLKASDTAMYYCARVYSFGGRHKALFDYWGQGTLVTVSS VL: EIVLTQSPATLSLSPGERATLSCRASQSVSSYLAWYQQKPGQAPRLLIYDASNRATGIPARFSGSGSGTDFTLTISSLEPEDFAVYYCQQRSNWPLTFGQGTKVEIK	–
binds	GC5B497 (antibody, V domains shown, GC5B164 PTM variant, Hc GC5H252) VH: EVQLVQSGAEVKKPGESLKISCKGSGYSFTSYVIGWVRQMPGKGLEWMGIIYPGDSDTRYSPSFQGQVTISADKSISTAYLQWSSLKASDTAMYYCARVYSFGGRHKALFDYWGQGTLVTVSS VL: EIVLTQSPATLSLSPGERATLSCRASQSVSSYLAWYQQKPGQAPRLLIYDASNRATGIPARFSGSGSGTDFTLTISSLEPEDFAVYYCQQRSNWPLTFGQGTKVEIK	–

Continued, binder first:

Binder	binding result (human GPRC5D [2])	other results
GCDB40 (bispecific antibody, V domains shown) VH 1: EVQLVESGGGLVQPGGSLRLSCAASGFTFNTYAMNWVRQAPGKGLEWVARIRSKYNNYATYYAASVKGRFTISRDDSKNSLYLQMNSLKTEDTAVYYCARHGNFGNSYVSWFAYWGQGTLVTVSS VL 1: QTVVTQEPSLTVSPGGTVTLTCRSSTGAVTTSNYANWVQQKPGQAPRGLIGGTNKRAPGTPARFSGSLLGGKAALTLSGVQPEDEAEYYCALWYSNLWVFGGGTKLTVL VH 2: EVQLLESGGGLVQPGGSLRLSCAASGFTFSDYGMHWVRQAPGKGLEWVSAIKYSGGSTYYADSVKGRFTISRDNSKNTLYLQMNSLRAEDTAVYYCAKRAESGPGLDYWGQGTLVTVSS VL 2: not shown	–	T-cell mediated cytotoxicity EC50, H929 (n = 5) (human GPRC5D [1]): 1.2 nM; T-cell mediated cytotoxicity EC50, MM1R (n = 3) (human GPRC5D [1]): 0.52 nM
GCDB43 (bispecific antibody, V domains shown) VH 1: EVQLVESGGGLVQPGGSLRLSCAASGFTFNTYAMNWVRQAPGKGLEWVARIRSKYNNYATYYAASVKGRFTISRDDSKNSLYLQMNSLKTEDTAVYYCARHGNFGNSYVSWFAYWGQGTLVTVSS VL 1: QTVVTQEPSLTVSPGGTVTLTCRSSTGAVTTSNYANWVQQKPGQAPRGLIGGTNKRAPGTPARFSGSLLGGKAALTLSGVQPEDEAEYYCALWYSNLWVFGGGTKLTVL VH 2: not shown VL 2: not shown	–	T-cell mediated cytotoxicity EC50, H929 (n = 5) (human GPRC5D [1]): 0.36 nM; T-cell mediated cytotoxicity EC50, MM1R (n = 3) (human GPRC5D [1]): 0.21 nM
GCDB44 (bispecific antibody, V domains shown) VH 1: EVQLVESGGGLVQPGGSLRLSCAASGFTFNTYAMNWVRQAPGKGLEWVARIRSKYNNYATYYAASVKGRFTISRDDSKNSLYLQMNSLKTEDTAVYYCARHGNFGNSYVSWFAYWGQGTLVTVSS VL 1: QTVVTQEPSLTVSPGGTVTLTCRSSTGAVTTSNYANWVQQKPGQAPRGLIGGTNKRAPGTPARFSGSLLGGKAALTLSGVQPEDEAEYYCALWYSNLWVFGGGTKLTVL VH 2: not shown VL 2: EIVLTQSPATLSLSPGERATLSCRASQSVSSYLAWYQQKPGQAPRLLIYDASNRATGIPARFSGSGSGTDFTLTISSLEPEDFAVYYCQQRSNWPLTFGQGTKVEIK	–	T-cell mediated cytotoxicity EC50, H929 (n = 5) (human GPRC5D [1]): 10.3 nM; T-cell mediated cytotoxicity EC50, MM1R (n = 3) (human GPRC5D [1]): 4.41 nM
GCDB41 (bispecific antibody, V domains shown) VH 1: EVQLVESGGGLVQPGGSLRLSCAASGFTFNTYAMNWVRQAPGKGLEWVARIRSKYNNYATYYAASVKGRFTISRDDSKNSLYLQMNSLKTEDTAVYYCARHGNFGNSYVSWFAYWGQGTLVTVSS VL 1: QTVVTQEPSLTVSPGGTVTLTCRSSTGAVTTSNYANWVQQKPGQAPRGLIGGTNKRAPGTPARFSGSLLGGKAALTLSGVQPEDEAEYYCALWYSNLWVFGGGTKLTVL VH 2: QVQLVQSGAEVKKPGSSVKVSCKASGGTFSSYGISWVRQAPGQGLEWMGGIIPIFGNINYAQKFQGRVTITADESTSTAYMELSSLRSEDTAVYYCARVSRRFKRFAYYFDYWGQGTLVTVSS VL 2: not shown	–	T-cell mediated cytotoxicity EC50, MM1R (n = 3) (human GPRC5D [1]): 2.58 nM
GCDB35 (bispecific antibody, V domains shown) VH 1: EVQLVESGGGLVQPGGSLRLSCAASGFTFNTYAMNWVRQAPGKGLEWVARIRSKYNNYATYYAASVKGRFTISRDDSKNSLYLQMNSLKTEDTAVYYCARHGNFGNSYVSWFAYWGQGTLVTVSS VL 1: QTVVTQEPSLTVSPGGTVTLTCRSSTGAVTTSNYANWVQQKPGQAPRGLIGGTNKRAPGTPARFSGSLLGGKAALTLSGVQPEDEAEYYCALWYSNLWVFGGGTKLTVL VH 2: EVQLVQSGAEVKKPGESLKISCKGSGYSFTSYWIGWVRQMPGKGLEWMGIIYPGDSDTRYSPSFQGQVTISADKSISTAYLQWSSLKASDTAMYYCARVYSFGGRHKALFDYWGQGTLVTVSS VL 2: EIVLTQSPATLSLSPGERATLSCRASQSVSSYLAWYQQKPGQAPRLLIYDASNRATGIPARFSGSGSGTDFTLTISSLEPEDFAVYYCQQRSNWPLTFGQGTKVEIK	–	T-cell mediated cytotoxicity EC50, H929 (n = 5) (human GPRC5D [1]): 1.39 nM; T-cell mediated cytotoxicity EC50, MM1R (n = 3) (human GPRC5D [1]): 0.74 nM
GCDB72 (bispecific antibody, IgG4, V domains shown) VH 1: EVQLVESGGGLVQPGGSLRLSCAASGFTFNTYAMNWVRQAPGKGLEWVARIRSKYNNYATYYAASVKGRFTISRDDSKNSLYLQMNSLKTEDTAVYYCARHGNFGNSYVSWFAYWGQGTLVTVSS VL 1: QTVVTQEPSLTVSPGGTVTLTCRSSTGAVTTSNYANWVQQKPGQAPRGLIGGTNKRAPGTPARFSGSLLGGKAALTLSGVQPEDEAEYYCALWYSNLWVFGGGTKLTVL VH 2: QVQLVQSGAEVKKPGASVKVSCKASGYSFTGYTMNWVRQAPGQGLEWMGLINPYNSDTNYAQKLQGRVTMTTDTSTSTAYMELRSLRSDDTAVYYCARVALRVALDYWGQGTLVTVSS VL 2: DIQMTQSPSSLSASVGDRVTITCKASQNVATHVGWYQQKPGKAPKRLIYSASYRYSGVPSRFSGSGSGTEFTLTISNLQPEDFATYYCQQYNRYPYTFGQGTKLEIK	–	T-cell redirection cytotoxicity EC50, cyno GPRC5D HEK cells (cyno GPRC5D): 3.41 nM
GC5B503 (antibody, V domains shown, GC5B164 PTM variant, Hc GC5H246) VH: EVQLVQSGAEVKKPGESLKISCKGSGYSFTSYWIGWVRQMPGKGLEWMGIIYPGKSDTRYSPSFQGQVTISADKSISTAYLQWSSLKASDTAMYYCARVYSFGGRHKALFDYWGQGTLVTVSS VL: EIVLTQSPATLSLSPGERATLSCRASQSVSSYLAWYQQKPGQAPRLLIYDASNRATGIPARFSGSGSGTDFTLTISSLEPEDFAVYYCQQRSNWPLTFGQGTKVEIK	binds	–
GC5B496 (antibody, V domains shown, GC5B164 PTM variant, Hc GC5H253) VH: EVQLVQSGAEVKKPGESLKISCKGSGYSFTSYYIGWVRQMPGKGLEWMGIIYPGDSDTRYSPSFQGQVTISADKSISTAYLQWSSLKASDTAMYYCARVYSFGGRHKALFDYWGQGTLVTVSS VL: EIVLTQSPATLSLSPGERATLSCRASQSVSSYLAWYQQKPGQAPRLLIYDASNRATGIPARFSGSGSGTDFTLTISSLEPEDFAVYYCQQRSNWPLTFGQGTKVEIK	binds	–
GC5B502 (antibody, V domains shown, GC5B164 PTM variant, Hc GC5H247) VH: EVQLVQSGAEVKKPGESLKISCKGSGYSFTSYWIGWVRQMPGKGLEWMGIIYPGSSDTRYSPSFQGQVTISADKSISTAYLQWSSLKASDTAMYYCARVYSFGGRHKALFDYWGQGTLVTVSS VL: EIVLTQSPATLSLSPGERATLSCRASQSVSSYLAWYQQKPGQAPRLLIYDASNRATGIPARFSGSGSGTDFTLTISSLEPEDFAVYYCQQRSNWPLTFGQGTKVEIK	binds	–
GC5B498 (antibody, V domains shown, GC5B164 PTM variant, Hc GC5H251) VH: EVQLVQSGAEVKKPGESLKISCKGSGYSFTSYFIGWVRQMPGKGLEWMGIIYPGDSDTRYSPSFQGQVTISADKSISTAYLQWSSLKASDTAMYYCARVYSFGGRHKALFDYWGQGTLVTVSS VL: EIVLTQSPATLSLSPGERATLSCRASQSVSSYLAWYQQKPGQAPRLLIYDASNRATGIPARFSGSGSGTDFTLTISSLEPEDFAVYYCQQRSNWPLTFGQGTKVEIK	binds	–
GC5B504 (antibody, V domains shown, GC5B164 PTM variant, Hc GC5H245) VH: EVQLVQSGAEVKKPGESLKISCKGSGYSFTSYWIGWVRQMPGKGLEWMGIIYPGESDTRYSPSFQGQVTISADKSISTAYLQWSSLKASDTAMYYCARVYSFGGRHKALFDYWGQGTLVTVSS VL: EIVLTQSPATLSLSPGERATLSCRASQSVSSYLAWYQQKPGQAPRLLIYDASNRATGIPARFSGSGSGTDFTLTISSLEPEDFAVYYCQQRSNWPLTFGQGTKVEIK	binds	–
